Reference: the supplement of paper PMC9112550, “Optimization of the antimicrobial peptide Bac7 by deep mutational scanning” (BMC Biology, 2022)

Tested on: Escherichia coli TOP10
Experiment: shrunken log2 fold change of peptide-encoding DNA abundance (4.5 h post-induction vs induction); higher = less antimicrobial activity (less host growth inhibition)
Settings: time post-induction: 4.5 h; library: site-saturation at positions 5, 18, 19, 20
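Further: peptides expressed intracellularly from a pBAD plasmid library in pooled LB shake-flask culture, induced with 0.3% L-arabinose, DNA abundance read by NGS, three biological replicates, DESeq2 with apeglm shrinkage.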

Sequence | shrunken log2 fold change
RRIRLRPPRLPRPRPRPKSAPRP | 0.139
RRIRCRPPRLPRPRPRPRNNPRP | -0.282
RRIRVRPPRLPRPRPRPQFPPRP | -0.28
RRIRHRPPRLPRPRPRPWTIPRP | -0.0445
RRIRGRPPRLPRPRPRPTAQPRP | 1.35
RRIRLRPPRLPRPRPRPCQTPRP | -0.0348
RRIRMRPPRLPRPRPRPGRNPRP | 0.344
RRIRIRPPRLPRPRPRPPHIPRP | -0.542
RRIRYRPPRLPRPRPRPGVVPRP | -0.354
RRIRDRPPRLPRPRPRPNIWPRP | 0.306
RRIRQRPPRLPRPRPRPFFCPRP | 0.111
RRIRLRPPRLPRPRPRPFYFPRP | -0.432
RRIRHRPPRLPRPRPRPASRPRP | 0.103
RRIRRRPPRLPRPRPRPVMGPRP | 0.0569
RRIRRRPPRLPRPRPRPEHIPRP | -0.13
RRIRIRPPRLPRPRPRPFGIPRP | -0.972
RRIRMRPPRLPRPRPRPGRCPRP | 1.02
RRIRLRPPRLPRPRPRPHHFPRP | -0.128
RRIRQRPPRLPRPRPRPFKEPRP | 0.343
RRIRHRPPRLPRPRPRPDFTPRP | -0.0849
RRIRNRPPRLPRPRPRPNRRPRP | -0.133
RRIRRRPPRLPRPRPRPPFCPRP | 0.627
RRIRNRPPRLPRPRPRPPMLPRP | -0.0624
RRIRCRPPRLPRPRPRPVGFPRP | 0.0344
RRIRERPPRLPRPRPRPVVKPRP | -0.413

Sequence | shrunken log2 fold change
RRIRARPPRLPRPRPRPCVCPRP | 0.301
RRIRLRPPRLPRPRPRPMMQPRP | -0.223
RRIRYRPPRLPRPRPRPWDFPRP | -0.0206
RRIRFRPPRLPRPRPRPPRRPRP | 0.826
RRIRHRPPRLPRPRPRPQQLPRP | 0.044
RRIRFRPPRLPRPRPRPLLIPRP | -0.385
RRIRCRPPRLPRPRPRPFGMPRP | -0.033
RRIRHRPPRLPRPRPRPASVPRP | -0.00985
RRIRLRPPRLPRPRPRPMHKPRP | -0.449
RRIRNRPPRLPRPRPRPYYNPRP | -1.49
RRIRTRPPRLPRPRPRPIDYPRP | -0.231
RRIRKRPPRLPRPRPRPVPDPRP | 0.418
RRIRSRPPRLPRPRPRPVRTPRP | -0.0647
RRIRRRPPRLPRPRPRPKHTPRP | 0.32
RRIRERPPRLPRPRPRPGDTPRP | -0.943
RRIRGRPPRLPRPRPRPGYTPRP | -0.0605
RRIRMRPPRLPRPRPRPDNAPRP | -0.267
RRIRYRPPRLPRPRPRPNDRPRP | -0.0645
RRIRDRPPRLPRPRPRPQPRPRP | 0.458
RRIRDRPPRLPRPRPRPGWRPRP | 0.832
RRIRCRPPRLPRPRPRPTDSPRP | -0.118
RRIRPRPPRLPRPRPRPWFRPRP | -0.0017
RRIRWRPPRLPRPRPRPAWTPRP | 0.428
RRIRARPPRLPRPRPRPEFMPRP | 0.115
RRIRSRPPRLPRPRPRPEQCPRP | -0.00373

Sequence | shrunken log2 fold change
RRIRSRPPRLPRPRPRPYGIPRP | 0.104
RRIRYRPPRLPRPRPRPGCFPRP | -0.349
RRIRKRPPRLPRPRPRPAMYPRP | 0.256
RRIRGRPPRLPRPRPRPNEIPRP | 0.559
RRIRKRPPRLPRPRPRPMGFPRP | -0.00871
RRIRVRPPRLPRPRPRPAWFPRP | 0.0841
RRIRERPPRLPRPRPRPTSDPRP | -0.0201
RRIRHRPPRLPRPRPRPMWFPRP | -0.218
RRIRTRPPRLPRPRPRPPKHPRP | 0.157
RRIRRRPPRLPRPRPRPEIKPRP | 0.27
RRIRIRPPRLPRPRPRPKYSPRP | -0.216
RRIRMRPPRLPRPRPRPFYLPRP | -0.191
RRIRFRPPRLPRPRPRPKSAPRP | -0.00592
RRIRIRPPRLPRPRPRPSYCPRP | -0.408
RRIRVRPPRLPRPRPRPKVVPRP | 0.174
RRIRQRPPRLPRPRPRPYKVPRP | 0.000796
RRIRSRPPRLPRPRPRPWTGPRP | -0.105
RRIRGRPPRLPRPRPRPEHSPRP | 0.114
RRIRARPPRLPRPRPRPKSFPRP | 0.0951
RRIRARPPRLPRPRPRPVLYPRP | 0.0232
RRIRERPPRLPRPRPRPGGCPRP | 1.44
RRIRARPPRLPRPRPRPMKPPRP | 0.101
RRIRARPPRLPRPRPRPIAPPRP | 0.53
RRIRIRPPRLPRPRPRPMANPRP | -0.104
RRIRSRPPRLPRPRPRPIHFPRP | -0.106

Sequence | shrunken log2 fold change
RRIRSRPPRLPRPRPRPKIPPRP | 1.16
RRIRPRPPRLPRPRPRPATAPRP | 0.315
RRIRRRPPRLPRPRPRPPWAPRP | 0.729
RRIRSRPPRLPRPRPRPEWNPRP | 0.119
RRIRVRPPRLPRPRPRPYCQPRP | -1.64
RRIRIRPPRLPRPRPRPRYHPRP | -1.12
RRIRMRPPRLPRPRPRPKRYPRP | 0.407
RRIRQRPPRLPRPRPRPHASPRP | -0.00783
RRIRIRPPRLPRPRPRPESVPRP | -0.00682
RRIRQRPPRLPRPRPRPGEDPRP | -0.0999
RRIRVRPPRLPRPRPRPYACPRP | 0.0114
RRIRPRPPRLPRPRPRPKVLPRP | 0.038
RRIRERPPRLPRPRPRPHVVPRP | -0.162
RRIRQRPPRLPRPRPRPEGNPRP | -0.00965
RRIRPRPPRLPRPRPRPRKAPRP | 0.0787
RRIRGRPPRLPRPRPRPACHPRP | 0.889
RRIRWRPPRLPRPRPRPLRVPRP | 0.874
RRIRDRPPRLPRPRPRPGENPRP | -0.00211
RRIRVRPPRLPRPRPRPGMDPRP | 0.225
RRIRTRPPRLPRPRPRPNPAPRP | 0.147
RRIRRRPPRLPRPRPRPTITPRP | 0.0541
RRIRIRPPRLPRPRPRPPLEPRP | -0.272
RRIRARPPRLPRPRPRPVYVPRP | 0.111
RRIRKRPPRLPRPRPRPTPVPRP | 0.756
RRIRMRPPRLPRPRPRPAHDPRP | 0.673

Sequence | shrunken log2 fold change
RRIRWRPPRLPRPRPRPYQQPRP | -0.0018
RRIRRRPPRLPRPRPRPFRAPRP | 0.251
RRIRCRPPRLPRPRPRPVCIPRP | -0.499
RRIRDRPPRLPRPRPRPKEDPRP | 0.337
RRIRIRPPRLPRPRPRPSIGPRP | -0.333
RRIRARPPRLPRPRPRPRFDPRP | 0.236
RRIRYRPPRLPRPRPRPQFKPRP | -0.134
RRIRWRPPRLPRPRPRPGFWPRP | 0.494
RRIRPRPPRLPRPRPRPIICPRP | -0.188
RRIRYRPPRLPRPRPRPQSYPRP | -0.0246
RRIRCRPPRLPRPRPRPWPWPRP | 0.0405
RRIRIRPPRLPRPRPRPAIKPRP | -0.265
RRIRLRPPRLPRPRPRPQGNPRP | -0.0463
RRIRFRPPRLPRPRPRPQGKPRP | -0.227
RRIRQRPPRLPRPRPRPYHDPRP | 0.015
RRIRSRPPRLPRPRPRPVHCPRP | -0.258
RRIRFRPPRLPRPRPRPKVWPRP | -0.249
RRIRKRPPRLPRPRPRPSSRPRP | -0.038
RRIRQRPPRLPRPRPRPKPPPRP | 0.27
RRIRMRPPRLPRPRPRPEIQPRP | 0.0386
RRIRIRPPRLPRPRPRPPNVPRP | 0.0421
RRIRERPPRLPRPRPRPHSCPRP | 0.00997
RRIRDRPPRLPRPRPRPKLIPRP | 0.088
RRIRARPPRLPRPRPRPMFSPRP | -0.142
RRIRGRPPRLPRPRPRPDLSPRP | 0.121
